The test system of assay [1] is eGFP Y40am. In words: SDS-PAGE analysis of eGFP Y40am expression in the presence of AzK. Format: cell-based. The following applies: overnight induction, compared to eGFP wild type band. As for the experimental part:
FIG. 3: SDS-PAGE analysis of the expression of eGFP Y40am in the presence of AzK with the MaPyIRS M129L V168C/MatRNACUA^Pyl mutant o-pair in comparison to MmOP and MaOP corroborates the fluorescence analysis. eGFP expression was assessed after overnight induction, two expressions of eGFP Y40AzK with the mutant MaOP are shown. eGFP wild type was expressed from the same plasmid carrying the MmOP. Samples of corresponding cell density were analyzed. The calculated molecular weight of eGFP is 28 kDa. M, molecular weight marker.
To further validate the finding, the expression of the reporter protein eGFP by SDS-PAGE was analyzed (e.g., FIG. 3).

The test system of assay [2] is eGFP Y40am. In words: eGFP Y40am amber suppression reporter: ncAA incorporation by o-pairs, fluorescence normalized to cell density. The format is cell-based. Here is the method:
The incorporation of BocK, AllocK and AzK by the MmPyIRS/MmtRNACUA^Pyl and MaPyIRS/MatRNACUA^Pyl o-pairs was compared. The ncAAs were supplemented in the medium at 5 mM. eGFP fluorescence (λex 488 nm; λem 508 nm) was assessed after 4 hours (white bars) and overnight (black bars) induction. Fluorescence units were correlated to cell density (F488;508/D600) and the average of eight technical replicates is shown; the error bars indicate the standard deviation.
The incorporation of AzK by the MmPyIRS/MmtRNACUA^Pyl and the MaPyIRS/MatRNACUA^Pyl wild type and mutant o-pairs was compared. The ncAA was supplemented in the medium at 5 mM. eGFP fluorescence (λex 485 nm; λem 530 nm) was assessed after overnight induction. eGFP wild type was expressed from the same plasmid carrying the MmOP. Fluorescence units were correlated to cell density (F485;530/D600) and the average of at least two technical replicates is shown; the error bars indicate the standard deviation.
FIG. 4: The MaPyIRS M129L V168C/MatRNACUA^Pyl mutant o-pair produces more target protein than MmOP with less or the same amount of AzK. MaOP LC, MaPyIRS M129L V168C/MatRNACUA^Pyl; MmOP, PyIRS and RNACUA^Pyl from M. mazel, both o-pairs were used in BL21(DE3) cells; UNINDUCED, eGFP Y40am expression was not induced; INDUCED, expression was induced with 1 mM IPTG. Different concentrations of AzK were provided in the medium either 2 hours before induction with IPTG, or in parallel with IPTG. eGFP fluorescence (λex 485 nm; λem 530 nm) was assessed after overnight induction and was normalized to cell density (D600). The average of at least 3 replicates is shown and the error bars indicate the standard deviation.
The MaPyIRS M129L+V168C mutant variant was generated, which contains the same amino acid residues in the amino acid binding pocket as the MmPyIRS. […] The efficiency of the incorporation of AzK into the reporter protein eGFP Y40am was assessed by recording the fluorescence intensity normalized to the corresponding cell density and was compared to the fluorescence of wild type eGFP expressed from the same plasmid.

Experimental findings from US20230287383A1, “PYRROLYSYL-tRNA SYNTHETASE VARIANTS AND USES THEREOF” (enGenes Biotech GmbH, priority 2020, published 2023) are described below.

B1: MmPyIRS/MmtRNACUA^Pyl: wildtype Methanosarcina mazei pyrrolysyl-tRNA synthetase/tRNA o-pair, the benchmark (protein, UniProt Q8PWY1 1-454, looked up)
Pyrrolysine--tRNA ligase: MDKKPLNTLISATGLWMSRTGTIHKIKHHEVSRSKIYIEMACGDHLVVNNSRSSRTARALRHHKYRKTCKRCRVSDEDLNKFLTKANEDQTSVKVKVVSAPTRTKKAMPKSVARAPKPLENTEAAQAQPSGSKFSPAIPVSTQESVSVPASVSTSISSISTGATASALVKGNTNPITSMSAPVQASAPALTKSQTDRLEVLLNPKDEISLNSGKPFRELESELLSRRKKDLQQIYAEERENYLGKLEREITRFFVDRGFLEIKSPILIPLEYIERMGIDNDTELSKQIFRVDKNFCLRPMLAPNLYNYLRKLDRALPDPIKIFEIGPCYRKESDGKEHLEEFTMLNFCQMGSGCTRENLESIITDFLNHLGIDFKIVGDSCMVYGDTLDVMHGDLELSSAVVGPIPLDREWGIDKPWIGAGFGLERLLKVKHDFKNIKRAARSESYYNGISTNL
modifications: with cognate tRNA Pyl
notes: wildtype Methanosarcina mazei pyrrolysyl-tRNA synthetase/tRNA o-pair, the benchmark
Take B1: the “eGFP expression band intensity in the presence of AzK” value with eGFP Y40am [1] is recorded as “markedly less intense”. Besides, the AllocK incorporation result in the assay on eGFP Y40am [2] (AllocK 5 mM in medium, eGFP fluorescence correlated to cell density) is “efficient incorporation”. The AzK incorporation efficiency result in the assay with eGFP Y40am [2] (AzK 5 mM in medium, eGFP fluorescence correlated to cell density (D600)) is listed as “very well incorporated”. Further, the BocK incorporation result in the assay on eGFP Y40am [2] (BocK 5 mM in medium, eGFP fluorescence correlated to cell density) is listed as “efficient incorporation”.
